In US20210292393A1 (published 2021):
Where a chain is given by its changes, count along the chain named.

B1: antibody 391 (antibody, V domains shown)
VH: EVQLVESGGGLVQPGGSLRLSCAASGFTFSSYWMHWVRQAPGKGLVWVSRINSDGSSTSYADSVKGRFTISRDNAKNTLYLQMNSLRAEDTAVYYCALGPLDIVGSYYYYGMDVWGQGTTVTVSS
VL: NFMLTQPHSVSESPGKTVTISCTGSSGSIASNYVQWYQQRPGSAPTTVIYEDNQRPSGVPDRFSGSIDSSSNSASLTISGLKTEDEADYYCQSYDSSNQDVVFGGGTKLTVL
B2: antibody 393 (antibody, V domains shown)
VH: QVQLVESGGGVVQPGRSLRLSCAASGFTFSSYAMHWVRQAPGQGLEWVAVISYDGSNKYYADSVKGRFTISRDNSKNTLYLQMNSLRAEDTAVYYCARAGSGSRHYYGMDVWGQGTTVTVSS
VL: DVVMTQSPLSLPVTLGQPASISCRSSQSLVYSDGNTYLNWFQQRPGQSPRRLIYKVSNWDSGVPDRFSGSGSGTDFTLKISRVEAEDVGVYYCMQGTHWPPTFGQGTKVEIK
B3: antibody 394 (antibody, V domains shown)
VH: QVQLVQSGAEVKKPGASVKVSCKASGYTFTGYYMHWVRQAPGQGLEWMGWINPNNGGTNSAQKFQGRVTMTRDTSISTAYMELNRLRSDDTAVYYCARDITTTAGTDYYYGMDVWGQGTTVTVSS
VL: SYELTQPPSVSVSPGQTARITCSGDALPKQYAYWYQQKPGQAPVLVICKDSERPSGIPERFSGSSSGTTVTLTISGVQAEDEADYYCQSADSSGTYIVFGTGTKVTVL
B4: antibody 397 (antibody, V domains shown)
VH: QVQLVESGGGVVQPGRSLRLSCAASGFTFSSYGMHWVRQAPGKGLESVAVISYDGSNKYYADSVKGRFTISRDNSKNTLYLQMNSLRAEDTAVYYCAKEGQWELQGNAFDIWGQGTMVTVSS
VL: B3 VL with C48Y, A90G, I97R, T101G, V105L
B5: antibody 399 (antibody, V domains shown)
VH: QVQLVQSGAEVKKPGASVKVSCKASGYTFTSYGISWVRQAPGQGLEWMGWISAYNGNTNYAQKLQGRVTMTTDTSTSTAYMELRSLRSDDTAVYYCARDSGYDWAGGHYYYYGMDVWGQGTTVTVSS
VL: QSALTQPASVSGSPGQSITISCTGTSSDVGGYNYVSWYQQHPGKAPKLMIYEVSNRPSGVSNRFSGSKSGNTASLTISGLQAEDEADYYCSSYTSSSTLVVFGGGTKLTVL
B6: antibody 400 (antibody, V domains shown)
VH: QVQLVESGGGVVQPGRSLRLSCAASGFTFSSYGMHWVRQAPGKGLEWVAVISYDGSNKYYADSVKGRFTISRDNSKNTLYLQMNSLRAEDTAVYYCAKAIDILTGYGPGGMDVWGQGTTVTVSS
VL: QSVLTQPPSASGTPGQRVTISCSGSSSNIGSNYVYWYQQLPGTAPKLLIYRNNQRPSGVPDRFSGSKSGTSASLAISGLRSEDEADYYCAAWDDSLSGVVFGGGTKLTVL
B7: antibody 402 (antibody, V domains shown)
VH: QVQLVQSGAEVKKPGASVKVSCKVSGYTLTELSMHWVRQAPGKGLEWMGGFDPEDVETIYAQKFQGRVTMTEDTSTDTAYMELSSLRSEDTAVYYCATGVAVVGTSHSYYYYYGMDVWGQGTTVTVSS
VL: DIQMTQSPSSLSASVGDRVTITCRASQGISNYLAWYQQKPGKVPKLLIYAASTLQSGVPSRFSGSGSGTDFTLTISSLQPEDVATYYCQKYNSAPFTFGPGTKVDIK
B8: antibody 410 (antibody, V domains shown)
VH: QVQLVQSGAEVKKPGASVKVSCKASGYTFTSYGISWVRQAPGQGLEWMGWISAYNGNTNYAQKLQGRVTMTTDTSTSTAYMELRSLRSDDTAVYYCARGRITIFGVEYYYGMDVWGQGTTVTVSS
VL: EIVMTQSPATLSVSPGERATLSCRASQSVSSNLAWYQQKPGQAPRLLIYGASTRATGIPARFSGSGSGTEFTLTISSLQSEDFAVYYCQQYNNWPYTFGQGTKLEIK
B9: antibody 415 (antibody, V domains shown)
VH: QVQLVESGGGVVQPGRSLRLSCAASGFTFSSYAMHWVRQAPGKGLEWVAVISYDGSNKYYADSVKGRFTISRDNSKNTLYLQMNSLRAEDTAVYYCAKTRGGSYFDAFDIWGQGTMVTVSS
VL: not shown
B10: antibody 433 (antibody, V domains shown)
VH: QVQLVESGGGVVQPGRSLRLSCAASGFTFSSYAMHWVRQAPGKGLEWVAVISYDGSNKYYADSVKGRFTISRDNSKNTLYLQMNSLRAEDTAVYYCAKDYEVVIAIGGPGAFDYWGQGTLVTVSS
VL: SYVLTQPPSVSVAPGKTARITCGGNNIGSKSVHWYQQKPGQAPVLVIYYDSDRPSGIPERFSGSNSGNTATLTISRVEAGDEADYYCQVWDSSSDHVVFGGGTKLTVL
B11: antibody 358 (antibody, V domains shown)
VH: QVQLVESGGGVVQPGRSLRLSCAASGFNLNSYAMHWVRQASGKGLEWVSLMSYDGSIKYYADSVKGRFTVSGDNSRNTLFLQMNSLRPDDSALYYCVRGGVSGPNSFDLWGQGTTVTVSS
VL: DVVMTQSPLSLPVTLGQPASISCRSSQSLVYSDGSTYVNWFQQRPGQSPRRLIYKVSNRDSGVPDRFSGSGSGTDFALKISRVEAEDVGVYYCMQGTHWPVTFGQGTKVEIK
B12: antibody 359 (antibody, V domains shown)
VH: QVQLVESGGGVVQPGRSLRLSCAASGFTFSSYAMHWVRQAPGKGLEWVAVISYDGSNKYYADSVKGRFTISRDNSKNTLYLQMNSLRAEDTAVYYCAYSGNYWYFDLWGRGTLVTVSS
VL: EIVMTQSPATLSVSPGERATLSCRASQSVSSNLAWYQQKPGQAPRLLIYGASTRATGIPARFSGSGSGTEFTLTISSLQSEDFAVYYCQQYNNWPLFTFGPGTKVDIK
B13: antibody 360 (antibody, V domains shown)
VH: QVQLVESGGGVVQPGRSLRLSCAASGFTFSSYAMHWVRQAPGKGLEWVAVISYDGSNKYYADSVKGRFTISRDNSKNTLYLQMNSLRAEDTAVYYCAKGKNSGSYFFAFDIWGQGTMVTVSS
VL: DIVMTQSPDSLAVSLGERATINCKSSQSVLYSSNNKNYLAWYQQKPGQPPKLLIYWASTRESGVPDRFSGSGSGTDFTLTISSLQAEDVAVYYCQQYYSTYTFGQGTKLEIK
B14: antibody 368 (antibody, V domains shown)
V domain 1: QITLKESGPTLVKPTETLTLTCAFSGFSLTKTGEAAGWIRQAPGRALEWVTVIFWDDDKRYSPSLQNRLTVTKDTSKNVVVLTMTNVDPVDTATYFCWAMGGPGKEFFGQGTRVAVSS
V domain 2: QSVLTQPPSVSGAPGQRVTVSCTGTSSSIGPYSDVHWYQHIPGKAPRLLIFGTSNRPSGVPARFSGSKSGSSASLVIAGLQAEDEADYYCQSYDSSLGEIYVFGTGTTVTVL
B15: antibody 381 (antibody, V domains shown)
VH: QVQLVESGGGVVQPGRSLRLSCAASGFTFSSYAMHWVRQAPGKGLEWVAVISYDGSNKYYADSVKGRFTISRDNSKNTLYLQMNSLRAEDTAVYYCARDRQYYDILTGYYLPTSEYYFDYWGQGTLVTVSS
VL: DIQMTQSPSSVSASVGDRVTITCRASQGISSWLAWYQQKPGKAPKLLIYAASSLQSGVPSRFSGSGSGTDFTLTISSLQPEDFATYYCQQANSFPPTFGGGTKVEIK
B16: antibody 387 (antibody, V domains shown)
VH: QVQLVESGGGVVQPGRSLRLSCAASGFTFSSYGMHWVRQAPGKGLEWVAVISYDGSNKYYADSVKGRFTISRDNSKNTLYLQMNSLRAEDTAVYYCAKDDTKNYGDLDIDYWGQGTLVTVSS
VL: SYELTQPSSVSVSPGQTARITCSGDVLAKKYARWFQQKPGQAPVLVIYKDSERPSGIPERFSGSSSGTTVTLTISGAQVEDEADYYCYSAADNNLGVFGGGTKLTVL

molecular target: SARS-CoV-2 spike protein (SARS-CoV-2, UniProt P0DTC2 14-1208)

| Binder | Kd [nM] | koff [s⁻¹] | kon [M⁻¹ s⁻¹] |
| --- | --- | --- | --- |
| B1 | ≤ 0.37 | ≤ 1e-05 | 27000 |
| B2 | 0.313 | 2.95e-05 | 94100 |
| B3 | 1.32 | 3.52e-05 | 26600 |
| B4 | ≤ 0.0169 | ≤ 1e-05 | 591000 |
| B5 | ≤ 0.315 | ≤ 1e-05 | 31700 |
| B6 | 1.28 | 0.000624 | 488000 |
| B7 | 2.14 | 6.48e-05 | 30400 |
| B8 | 2.05 | 0.000329 | 161000 |
| B9 | ≤ 0.0125 | ≤ 1e-05 | 802000 |
| B10 | 2.8 | 0.000349 | 125000 |

molecular target: SARS-CoV-2 spike (S) protein (SARS-CoV-2, UniProt P0DTC2 14-1208)

| Binder | Kd [nM] | koff [s⁻¹] | kon [M⁻¹ s⁻¹] |
| --- | --- | --- | --- |
| B11 | 1.69 | 0.000487 | 289000 |
| B12 | 0.441 | 6.67e-05 | 151000 |
| B13 | 1.4 | 0.000145 | 104000 |
| B14 | 12.7 | 0.000486 | 38100 |
| B15 | 6.66 | 0.000207 | 31100 |
| B16 | 37.4 | 0.000808 | 21600 |
